Among the data in article doi:10.1101/2025.10.15.682582 are percent present as dimer, stoichiometry N and percent of total content in the dimer peak values, retold here.

Assay [1] has as its target Noregen, recombinant norrin-derived growth factor (human) (UniProt Q00604). Kind of assay: intact LC/ES-MS.
Assay [2] shares this target. Kind of assay: AUC.

Sequence of Noregen, recombinant norrin-derived growth factor (Q00604 25-133): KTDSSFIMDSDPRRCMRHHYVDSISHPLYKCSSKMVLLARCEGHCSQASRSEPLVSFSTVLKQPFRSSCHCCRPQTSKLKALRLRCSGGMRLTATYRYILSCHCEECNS

In general, stoichiometry N refers to the number of molecules, sites or subunits per partner or assembly. For “Noregen, recombinant norrin-derived growth factor (from UniProt Q00604 25-133) (ligand)”, in assay [1], the percent present as dimer worked out at 98% and the stoichiometry N stood at 2. Also, in assay [2], the percent of total content in the dimer peak is 99.9% and the stoichiometry N is 2.
